Data as given in patent US20180250358A1, “GHRH AGONISTS FOR THE TREATMENT OF ISCHEMIC DISORDERS” (published 2018).
Non-standard residues stand in square brackets, D forms with d. No end group written: not given here. *: point of attachment. Phe(F5) = N[C@@H](Cc1c(F)c(F)c(F)c(F)c1F)C(=O)O; Desaminotyrosyl = O=C(CCc1ccc(O)cc1)*; NMeY = CN[C@@H](Cc1ccc(O)cc1)C(=O)O; Agmatine = N=C(N)NCCCCN*; NMeA = CN[C@@H](C)C(=O)O; Nle = CCCC[C@H](N)C(=O)O; Orn = NCCC[C@H](N)C(=O)O; Abu = CC[C@H](N)C(=O)O; Aoc = NCCCCCCCC(=O)O; Ava = NCCCCC(=O)O; GABA = NCCCC(=O)O

T1: GHRH receptor of human pituitary membranes (human, UniProt Q02643)
T1 sequence: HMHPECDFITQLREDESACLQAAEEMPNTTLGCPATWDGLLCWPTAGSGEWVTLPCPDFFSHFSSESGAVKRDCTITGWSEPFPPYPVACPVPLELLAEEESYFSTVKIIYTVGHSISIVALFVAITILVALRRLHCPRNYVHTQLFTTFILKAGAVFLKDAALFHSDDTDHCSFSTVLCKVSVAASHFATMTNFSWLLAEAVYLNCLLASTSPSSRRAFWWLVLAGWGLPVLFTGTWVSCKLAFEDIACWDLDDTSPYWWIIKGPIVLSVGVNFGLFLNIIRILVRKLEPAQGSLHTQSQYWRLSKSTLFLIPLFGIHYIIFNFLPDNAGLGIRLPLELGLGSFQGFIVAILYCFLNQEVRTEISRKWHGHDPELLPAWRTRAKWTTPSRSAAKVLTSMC

B1: P-27415 [N-Me-Tyr^1, Orn^12, Abu^15, Orn^21, Nle^27, Gab^30]hGHRH(1-30)NH-CH3 (peptide)
peptide: YADAIFTNSYRKVLGQLSARKLLQDIMSRQ
modifications: N-Me-Tyr^1; Orn^12; Abu^15; Orn^21; Nle^27; Gab^30 (in place of Gln^30); C-terminal -NH-CH3
B2: P-25503 [N-Me-Tyr^1, Abu^2, Orn^12, Abu^15, Orn^21, Nle^27, Gab^30]hGHRH(1-30)NH2 (peptide)
peptide: B1 peptide
modifications: N-Me-Tyr^1; Abu^2; Orn^12; Abu^15; Orn^21; Nle^27; Gab^30 (in place of Gln^30); C-terminal -NH2
B3: P-21301 [N-Me-Tyr^1, Orn^12, Abu^15, Orn^21, Nle^27, Asp^28, Amc^30]hGHRH(1-30)NH2 (peptide)
peptide: [NMeY]ADAIFTNSYR[Orn]VL[Abu]QLSAR[Orn]LLQDI[Nle]DR[Aoc]-NH2
modifications: N-terminus assumed
SMILES: CCCC[C@H](NC(=O)[C@@H](NC(=O)[C@H](CC(=O)O)NC(=O)[C@H](CCC(N)=O)NC(=O)[C@H](CC(C)C)NC(=O)[C@H](CC(C)C)NC(=O)[C@H](CCCN)NC(=O)[C@H](CCCNC(=N)N)NC(=O)[C@H](C)NC(=O)[C@H](CO)NC(=O)[C@H](CC(C)C)NC(=O)[C@H](CCC(N)=O)NC(=O)[C@H](CC)NC(=O)[C@H](CC(C)C)NC(=O)[C@@H](NC(=O)[C@H](CCCN)NC(=O)[C@H](CCCNC(=N)N)NC(=O)[C@H](Cc1ccc(O)cc1)NC(=O)[C@H](CO)NC(=O)[C@H](CC(N)=O)NC(=O)[C@@H](NC(=O)[C@H](Cc1ccccc1)NC(=O)[C@@H](NC(=O)[C@H](C)NC(=O)[C@H](CC(=O)O)NC(=O)[C@H](C)NC(=O)[C@H](Cc1ccc(O)cc1)NC)[C@@H](C)CC)[C@@H](C)O)C(C)C)[C@@H](C)CC)C(=O)N[C@@H](CC(=O)O)C(=O)N[C@@H](CCCNC(=N)N)C(=O)NCCCCCCCC(N)=O
B4: P-27413 [Dat^1, Gln^8, His^11, Orn^12, Abu^15, His^20, Orn^21, Nle^27, Asp^28]hGHRH(1-29)NH-CH3 (peptide)
peptide: [Desaminotyrosyl]ADAIFTQSYH[Orn]VL[Abu]QLSAH[Orn]LLQDI[Nle]DR-NHMe
SMILES: CCCC[C@H](NC(=O)[C@@H](NC(=O)[C@H](CC(=O)O)NC(=O)[C@H](CCC(N)=O)NC(=O)[C@H](CC(C)C)NC(=O)[C@H](CC(C)C)NC(=O)[C@H](CCCN)NC(=O)[C@H](Cc1c[nH]cn1)NC(=O)[C@H](C)NC(=O)[C@H](CO)NC(=O)[C@H](CC(C)C)NC(=O)[C@H](CCC(N)=O)NC(=O)[C@H](CC)NC(=O)[C@H](CC(C)C)NC(=O)[C@@H](NC(=O)[C@H](CCCN)NC(=O)[C@H](Cc1c[nH]cn1)NC(=O)[C@H](Cc1ccc(O)cc1)NC(=O)[C@H](CO)NC(=O)[C@H](CCC(N)=O)NC(=O)[C@@H](NC(=O)[C@H](Cc1ccccc1)NC(=O)[C@@H](NC(=O)[C@H](C)NC(=O)[C@H](CC(=O)O)NC(=O)[C@H](C)NC(=O)CCc1ccc(O)cc1)[C@@H](C)CC)[C@@H](C)O)C(C)C)[C@@H](C)CC)C(=O)N[C@@H](CC(=O)O)C(=O)N[C@@H](CCCNC(=N)N)C(=O)NC
B5: P-21300 [Dat^1, D-Ala^2, Orn^12, Abu^15, Orn^21, Nle^27, Asp^28, Amc^30]hGHRH(1-30)NH2 (peptide)
peptide: [Desaminotyrosyl][dA]DAIFTNSYR[Orn]VL[Abu]QLSAR[Orn]LLQDI[Nle]DR[Aoc]-NH2
SMILES: CCCC[C@H](NC(=O)[C@@H](NC(=O)[C@H](CC(=O)O)NC(=O)[C@H](CCC(N)=O)NC(=O)[C@H](CC(C)C)NC(=O)[C@H](CC(C)C)NC(=O)[C@H](CCCN)NC(=O)[C@H](CCCNC(=N)N)NC(=O)[C@H](C)NC(=O)[C@H](CO)NC(=O)[C@H](CC(C)C)NC(=O)[C@H](CCC(N)=O)NC(=O)[C@H](CC)NC(=O)[C@H](CC(C)C)NC(=O)[C@@H](NC(=O)[C@H](CCCN)NC(=O)[C@H](CCCNC(=N)N)NC(=O)[C@H](Cc1ccc(O)cc1)NC(=O)[C@H](CO)NC(=O)[C@H](CC(N)=O)NC(=O)[C@@H](NC(=O)[C@H](Cc1ccccc1)NC(=O)[C@@H](NC(=O)[C@H](C)NC(=O)[C@H](CC(=O)O)NC(=O)[C@@H](C)NC(=O)CCc1ccc(O)cc1)[C@@H](C)CC)[C@@H](C)O)C(C)C)[C@@H](C)CC)C(=O)N[C@@H](CC(=O)O)C(=O)N[C@@H](CCCNC(=N)N)C(=O)NCCCCCCCC(N)=O
B6: P-27414 [N-Me-Tyr^1, D-Ala^2, Fpa5^6, Orn^12, Abu^15, Orn^21, Nle^27, Gab^30]hGHRH(1-30)NH-CH3 (peptide)
peptide: B1 peptide
modifications: N-Me-Tyr^1; D-Ala^2; Fpa5^6; Orn^12; Abu^15; Orn^21; Nle^27; Gab^30 (in place of Gln^30); C-terminal -NH-CH3
B7: P-25501 [N-Me-Tyr^1, D-Ala^2, Orn^12, Abu^15, Orn^21, Nle^27, Gab^30]hGHRH(1-30)NH2 (peptide)
peptide: B1 peptide
modifications: N-Me-Tyr^1; D-Ala^2; Orn^12; Abu^15; Orn^21; Nle^27; Gab^30 (in place of Gln^30); C-terminal -NH2
B8: P-27400 [Dat^1, D-Ala^2, Orn^12, Abu^15, Orn^21, Nle^27, Asp^28]hGHRH(1-29)NH-CH3 (peptide)
peptide: [Desaminotyrosyl][dA]DAIFTNSYR[Orn]VL[Abu]QLSAR[Orn]LLQDI[Nle]DR-NHMe
SMILES: CCCC[C@H](NC(=O)[C@@H](NC(=O)[C@H](CC(=O)O)NC(=O)[C@H](CCC(N)=O)NC(=O)[C@H](CC(C)C)NC(=O)[C@H](CC(C)C)NC(=O)[C@H](CCCN)NC(=O)[C@H](CCCNC(=N)N)NC(=O)[C@H](C)NC(=O)[C@H](CO)NC(=O)[C@H](CC(C)C)NC(=O)[C@H](CCC(N)=O)NC(=O)[C@H](CC)NC(=O)[C@H](CC(C)C)NC(=O)[C@@H](NC(=O)[C@H](CCCN)NC(=O)[C@H](CCCNC(=N)N)NC(=O)[C@H](Cc1ccc(O)cc1)NC(=O)[C@H](CO)NC(=O)[C@H](CC(N)=O)NC(=O)[C@@H](NC(=O)[C@H](Cc1ccccc1)NC(=O)[C@@H](NC(=O)[C@H](C)NC(=O)[C@H](CC(=O)O)NC(=O)[C@@H](C)NC(=O)CCc1ccc(O)cc1)[C@@H](C)CC)[C@@H](C)O)C(C)C)[C@@H](C)CC)C(=O)N[C@@H](CC(=O)O)C(=O)N[C@@H](CCCNC(=N)N)C(=O)NC
B9: P-21303 [N-Me-Tyr^1, D-Ala^2, Orn^12, Abu^15, Orn^21, Nle^27, Asp^28, Amc^30]hGHRH(1-30)NH2 (peptide)
peptide: [NMeY][dA]DAIFTNSYR[Orn]VL[Abu]QLSAR[Orn]LLQDI[Nle]DR[Aoc]-NH2
modifications: N-terminus assumed
SMILES: CCCC[C@H](NC(=O)[C@@H](NC(=O)[C@H](CC(=O)O)NC(=O)[C@H](CCC(N)=O)NC(=O)[C@H](CC(C)C)NC(=O)[C@H](CC(C)C)NC(=O)[C@H](CCCN)NC(=O)[C@H](CCCNC(=N)N)NC(=O)[C@H](C)NC(=O)[C@H](CO)NC(=O)[C@H](CC(C)C)NC(=O)[C@H](CCC(N)=O)NC(=O)[C@H](CC)NC(=O)[C@H](CC(C)C)NC(=O)[C@@H](NC(=O)[C@H](CCCN)NC(=O)[C@H](CCCNC(=N)N)NC(=O)[C@H](Cc1ccc(O)cc1)NC(=O)[C@H](CO)NC(=O)[C@H](CC(N)=O)NC(=O)[C@@H](NC(=O)[C@H](Cc1ccccc1)NC(=O)[C@@H](NC(=O)[C@H](C)NC(=O)[C@H](CC(=O)O)NC(=O)[C@@H](C)NC(=O)[C@H](Cc1ccc(O)cc1)NC)[C@@H](C)CC)[C@@H](C)O)C(C)C)[C@@H](C)CC)C(=O)N[C@@H](CC(=O)O)C(=O)N[C@@H](CCCNC(=N)N)C(=O)NCCCCCCCC(N)=O
B10: P-22325 [N-Me-Tyr^1, Gln^8, Orn^12, Abu^15, Orn^21, Nle^27, Asp^28, Apa^30]hGHRH(1-30)NH2 (peptide)
peptide: [NMeY]ADAIFTQSYR[Orn]VL[Abu]QLSAR[Orn]LLQDI[Nle]DR[Ava]-NH2
modifications: N-terminus assumed
SMILES: CCCC[C@H](NC(=O)[C@@H](NC(=O)[C@H](CC(=O)O)NC(=O)[C@H](CCC(N)=O)NC(=O)[C@H](CC(C)C)NC(=O)[C@H](CC(C)C)NC(=O)[C@H](CCCN)NC(=O)[C@H](CCCNC(=N)N)NC(=O)[C@H](C)NC(=O)[C@H](CO)NC(=O)[C@H](CC(C)C)NC(=O)[C@H](CCC(N)=O)NC(=O)[C@H](CC)NC(=O)[C@H](CC(C)C)NC(=O)[C@@H](NC(=O)[C@H](CCCN)NC(=O)[C@H](CCCNC(=N)N)NC(=O)[C@H](Cc1ccc(O)cc1)NC(=O)[C@H](CO)NC(=O)[C@H](CCC(N)=O)NC(=O)[C@@H](NC(=O)[C@H](Cc1ccccc1)NC(=O)[C@@H](NC(=O)[C@H](C)NC(=O)[C@H](CC(=O)O)NC(=O)[C@H](C)NC(=O)[C@H](Cc1ccc(O)cc1)NC)[C@@H](C)CC)[C@@H](C)O)C(C)C)[C@@H](C)CC)C(=O)N[C@@H](CC(=O)O)C(=O)N[C@@H](CCCNC(=N)N)C(=O)NCCCCC(N)=O
B11: P-20357 [Dat^1, D-Ala^2, N-Me-Ala^8, Orn^12, Abu^15, Orn^21, Nle^27, Asp^28, Agm^29]hGHRH(1-29)NH2 (peptide)
peptide: [Desaminotyrosyl][dA]DAIFT[NMeA]SYR[Orn]VL[Abu]QLSAR[Orn]LLQDI[Nle]D[Agmatine]
SMILES: CCCC[C@H](NC(=O)[C@@H](NC(=O)[C@H](CC(=O)O)NC(=O)[C@H](CCC(N)=O)NC(=O)[C@H](CC(C)C)NC(=O)[C@H](CC(C)C)NC(=O)[C@H](CCCN)NC(=O)[C@H](CCCNC(=N)N)NC(=O)[C@H](C)NC(=O)[C@H](CO)NC(=O)[C@H](CC(C)C)NC(=O)[C@H](CCC(N)=O)NC(=O)[C@H](CC)NC(=O)[C@H](CC(C)C)NC(=O)[C@@H](NC(=O)[C@H](CCCN)NC(=O)[C@H](CCCNC(=N)N)NC(=O)[C@H](Cc1ccc(O)cc1)NC(=O)[C@H](CO)NC(=O)[C@H](C)N(C)C(=O)[C@@H](NC(=O)[C@H](Cc1ccccc1)NC(=O)[C@@H](NC(=O)[C@H](C)NC(=O)[C@H](CC(=O)O)NC(=O)[C@@H](C)NC(=O)CCc1ccc(O)cc1)[C@@H](C)CC)[C@@H](C)O)C(C)C)[C@@H](C)CC)C(=O)N[C@@H](CC(=O)O)C(=O)NCCCCNC(=N)N

molecular target: T1, GHRH receptor of human pituitary …; test: competition vs 125I-JV-1-42, human pituitary membranes;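 further: pituitaries used were normal human glands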
From the text: Normal human pituitaries were purchased from the National Hormone and Peptide Program (A.F. Parlow, Los Angeles, County Harbor-UCLA Medical Center, Torrance, Calif.).

Binder	IC50 [nM]	relative affinity (binding potency) vs JI-38 [vs JI-38=1]
B1	3.02	1.44
B2	1.18	3.67
B3	2.99	1.45
B4	2.45	1.78
B5	3.61	1.2
B6	1.56	2.79
B7	1.07	4.07
[NMeY]ADAIFTQSYR[Orn]VL[Abu]QLSAR[Orn]LLQDI[Nle]SRQ-{GABA-NH2} [P-29703 [N-Me-Tyr^1, Gln^8, Orn^12, Abu^15, Orn^21, Nle^27, Gln-Gab^30]hGHRH(1-30)NH2]	1.22	3.57
B8	3.35	1.3
[NMeY][dA]DAI[Phe(F5)]TNSYR[Orn]VL[Abu]QLSAR[Orn]LLQDI[Nle]D[Agmatine] [P-20359 [N-Me-Tyr^1, D-Ala^2, Fpa5^6, Orn^12, Abu^15, Orn^21, Nle^27, Asp^28, Agm^29]hGHRH(1-29)NH2]	3.05	1.43
B9	1.87	2.32
B10	3.8	1.14
B11	0.86	5.06
